Patent US20040175721A1 (UNIVERSITY OF MASSACHUSETTS A MASSACHUSETTS, published 2004)

B2: human centriolin Nud1 domain (amino acids 127-233 of centriolin) fused to the GAL4 transactivation domain (other, not shown: small tags and cut ends)
chain (part 1 of 2): ANFNQSGNIADSSLSFTFTNSSNGPNLITTQTNSQALSQPIASSNVHDNFMNNEITASKIDDGNNSKPLSPGWTDQTAYNAFGITTGMFNTTTMDDVYNYLFDDEDTPPNPKKE
chain (part 2 of 2): LEVLNLSYNLIGKIEKLDKLLKLRELNLSYNKISKIEGIENMCNLQKLNLAGNEIEHIPVWLGKKLKSLRVLNLKGNKISSLQDISKLKPLQDLISLILVENPVVTL
notes: also called TAD-hNud1; hNud1

Columns and labels:
[1] = molecular target: B2; assay: directed yeast two-hybrid, TAD-hNud1 x LexA control
From the text: (§1) A 321 base pair fragment containing amino acids 127-233 of centriolin were cloned into EcoR I and Sal I sites of pGADT7 (Clontech) to produce a fusion with the GAL4 transactivation domain (TAD). Constructs pEG202 (LexA), pGP69 (LexA-BUB2), pGP122 (LexA-BFA1) and the yeast strain SGY37 were from Elmar Schiebel (Paterson Institute for Cancer Research, Manchester, U.K.). SGY37, which contains a LacZ reporter gene under control of a LexA operator, was transformed with plasmid DNA using LiAc (Ito et al., J Bacteriol, 153:163-168, 1983) and transformants selected for on dropout medium. Methods used were semi-quantitative β-galactosidase assays (Schramm et al., Methods Cell Biol., 67:71-94, 2001) and more quantitative β-galactosidase assays with CPRG (chlorophenol red-b-D-galactopyranoside, Roche) as a substrate per the manufacturer's instructions (Clontech Yeast Protocols Handbook). Co-immunopreciptation of LexA and GAL4 TAD fusion proteins were carried out as previously described (Schramm et al., Methods Cell Biol., 67:71-94, 2001).

[2] = molecular target: T1, LexA-tagged budding yeast Bfa1p (pGP122, LexA-BFA1) (budding yeast, UniProt P47113 1-574, limits assumed); assay: directed yeast two-hybrid
T1 construct: Construct pGP122 obtained from Elmar Schiebel; also called LexA-Bfa1p; not shown: LexA part of the vector
T1 sequence (looked up): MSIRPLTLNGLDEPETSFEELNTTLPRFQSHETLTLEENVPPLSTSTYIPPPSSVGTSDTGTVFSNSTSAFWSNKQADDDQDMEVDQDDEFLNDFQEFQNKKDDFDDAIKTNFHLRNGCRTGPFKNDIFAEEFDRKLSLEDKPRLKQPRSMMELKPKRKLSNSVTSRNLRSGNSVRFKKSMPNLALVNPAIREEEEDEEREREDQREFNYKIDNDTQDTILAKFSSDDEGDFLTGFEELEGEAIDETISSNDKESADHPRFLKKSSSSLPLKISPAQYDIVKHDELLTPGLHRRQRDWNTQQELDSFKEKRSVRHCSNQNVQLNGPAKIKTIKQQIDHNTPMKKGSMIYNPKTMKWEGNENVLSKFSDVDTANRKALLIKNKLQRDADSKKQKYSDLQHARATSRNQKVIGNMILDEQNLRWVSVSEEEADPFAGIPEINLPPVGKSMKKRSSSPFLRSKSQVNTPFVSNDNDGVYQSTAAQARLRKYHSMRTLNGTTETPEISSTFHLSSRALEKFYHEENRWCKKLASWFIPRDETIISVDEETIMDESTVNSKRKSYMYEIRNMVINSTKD
From the text: as §1

[3] = molecular target: T2, LexA-tagged budding yeast Bub2p (pGP69, LexA-BUB2) (budding yeast, UniProt P26448 1-306, limits assumed); assay: directed yeast two-hybrid, LexA-BUB2 x TAD control
T2 construct: Construct pGP69 obtained from Elmar Schiebel; also called LexA-Bub2p; not shown: LexA part of the pEG202-type vector
T2 sequence (looked up): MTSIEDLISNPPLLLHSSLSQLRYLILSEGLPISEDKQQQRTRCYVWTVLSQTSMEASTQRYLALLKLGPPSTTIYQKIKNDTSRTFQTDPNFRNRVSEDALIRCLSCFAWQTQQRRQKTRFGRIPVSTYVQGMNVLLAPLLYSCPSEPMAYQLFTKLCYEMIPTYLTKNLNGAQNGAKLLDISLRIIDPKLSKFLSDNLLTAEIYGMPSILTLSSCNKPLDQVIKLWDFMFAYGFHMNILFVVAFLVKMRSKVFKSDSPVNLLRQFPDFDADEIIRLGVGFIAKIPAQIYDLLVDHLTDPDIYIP
From the text: as §1

B1: LexA alone (pEG202) (other, UniProt P0A7C2 1-202, looked up)
chain: MKALTARQQEVFDLIRDHISQTGMPPTRAEIAQRLGFRSPNAAEEHLKALARKGVIEIVSGASRGIRLLQEEEEGLPLVGRVAAGEPLLAQQHIEGHYQVDPSLFKPNADFLLRVSGMSMKDIGIMDGDLLAVHKTQDVRNGQVVVARIDDEVTVKRLKKQGNKVELLPENSEFKPIVVDLRQQSFTIEGLAVGVIRNGDWL
[1]
  binding result: no binding

## B2
[2]
  binding result: no binding

B3: GAL4 transactivation domain alone (other, UniProt P04386 768-881, looked up)
chain: ANFNQSGNIADSSLSFTFTNSSNGPNLITTQTNSQALSQPIASSNVHDNFMNNEITASKIDDGNNSKPLSPGWTDQTAYNAFGITTGMFNTTTMDDVYNYLFDDEDTPPNPKKE
notes: also called TAD
[3]
  binding result: no binding
